Residue numbers refer to the chain shown, from its start. In names and notes the source's numbering stands.
B1: PchEHA (epoxide hydrolase) (Phanerodontia chrysosporium; G14A/K291R/Y163H) (protein)
chain: MDASLFKDFKTSRAFNYHYFYSPAKGPRPTLFFLHGNPSVATDWAQIVPHFTSRGYGVLAPDMLGYGDTDKPTDPALYVSSGMCRNLVDLLDHEGLEKVIAIGHDWGCLSVSRLASYYPERVIAYAFLAASFIGPIPPIPFDAFLEYIKQQVGYELYGYWKFHSEPGLDQFVRDHLDTFLSILWPSDPAVWKTRLAPTGALKQSALEGWTAPLAPYITEEFKKHHVEVFNKNGFEAPACYYRIMTSGLQAEDDKQILPERAVPPKDAPVFFGAANKDYICIPALAYATFKRDEWKDHKITIKEYDADHWLILSHADQVSRDLEAWIEGFASGGQ
notes: catalytic triad D105/H308/D277
B2: PchEHA (epoxide hydrolase) (Phanerodontia chrysosporium; E251G/Y163H) (protein)
chain: B1 chain with A14G, E251G, R291K
notes: as for B1
B3: PchEHA (epoxide hydrolase) (Phanerodontia chrysosporium; A24T/E251G) (protein)
chain: B1 chain with A14G, A24T, H163Y, E251G, R291K
notes: as for B1
B4: PchEHA (epoxide hydrolase) (Phanerodontia chrysosporium; E251G/G14A/K291R) (protein)
chain: B1 chain with H163Y, E251G
notes: as for B1
B5: PchEHA (epoxide hydrolase) (Phanerodontia chrysosporium; C108S/G14A/K291R) (protein)
chain: B1 chain with C108S, H163Y
notes: as for B1
B6: PchEHA (epoxide hydrolase) (Phanerodontia chrysosporium) (protein)
chain: B1 chain with A14G, H163Y, R291K
notes: as for B1

These proteins were tested on c1ccc([C@@H]2CO2)cc1 (assay: purified protein). Settings: 10-80 mM SO, 37 °C, buffer pH 8.0.
Format: biochemical, Phanerodontia chrysosporium
Work on B1 yielded a Km of 20.36 ± 1.34 mM, a kcat of 2480 ± 52.4 s⁻¹ and a kcat/Km of 122000 M⁻¹ s⁻¹. B2 showed a Km of 14.16 ± 1.19 mM, a kcat of 2350 ± 52.3 s⁻¹ and a kcat/Km of 166000 M⁻¹ s⁻¹. In the case of B3, the Km is reported as 26.28 ± 3.79 mM, the kcat is reported as 1660 ± 87.3 s⁻¹ and the kcat/Km is reported as 63100 M⁻¹ s⁻¹. Work on B4 yielded a Km of 22.6 ± 1.75 mM, a kcat of 2250 ± 59 s⁻¹ and a kcat/Km of 99600 M⁻¹ s⁻¹. With B5 the Km was 21.71 ± 2.6 mM, the kcat was 3020 ± 120 s⁻¹ and the kcat/Km was 139000 M⁻¹ s⁻¹. B6 showed a Km of 25.75 ± 2.08 mM, a kcat of 1740 ± 50.8 s⁻¹ and a kcat/Km of 67500 M⁻¹ s⁻¹.

What follows are proteins tested on c1ccc([C@H]2CO2)cc1 (assay: purified protein). Settings: 10-80 mM SO, 37 °C, buffer pH 8.0.
Format: biochemical, Phanerodontia chrysosporium
B1 was tested, and the Km was 57.82 ± 7.75 mM and the kcat/Km was 36000 M⁻¹ s⁻¹. Work on B2 yielded a Km of 30.39 ± 2.99 mM and a kcat/Km of 32500 M⁻¹ s⁻¹. With B3 the Km was 43.98 ± 3.94 mM and the kcat/Km was 25900 M⁻¹ s⁻¹. For B4, the Km was 41.96 ± 2.07 mM and the kcat/Km was 38300 M⁻¹ s⁻¹. With B5 the Km was 51.04 ± 2.04 mM and the kcat/Km was 19700 M⁻¹ s⁻¹. With B6 the Km was 39.23 ± 4.49 mM and the kcat/Km was 34400 M⁻¹ s⁻¹.
